Results on 26 sequences are retold here after the supplement of paper PMC9732359.

± gives the uncertainty stated by the source.

This data set can be described thus: protein stability index of a GFP-peptide fusion (yeast GPS) (PSI 1-4); higher = more stable; sorted into four equal gates, so the index is relative within each strain. Summed up:
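Tiled 17-residue peptides from yeast proteins were fused downstream of GFP on a plasmid that also expresses Cherry, and the pooled library was carried in yeast. Mid-log cultures grown in leucine-free medium were sorted into four equal gates by GFP/Cherry fluorescence ratio. Plasmids from each gate were PCR-amplified and Illumina-sequenced, and reads were assigned to strains by barcodes. Each peptide's protein stability index is the sum, over gates, of the gate's read frequency multiplied by its gate number.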

Regarding KVTEKVLTQLTALALKY [CSI1], the protein stability index reads like this: (doa10∆) 2.24 ± 0.044; (pdr5∆) 2 ± 0.029; (san1∆) 2 ± 0.039; (ubr1∆) 2.13 ± 0.044.
Regarding EALNLLKFFLVDENETV [LIN1], the protein stability index is 1.52 ± 0.06 (doa10∆), 1.52 ± 0.043 (pdr5∆), 1.4 ± 0.12 (san1∆) and 1.14 ± 0.054 (ubr1∆).
DDDDEDDDEIVMPVPNV [SKP1] gave a protein stability index (doa10∆) of 3.3 ± 0.064, a protein stability index (pdr5∆) of 3.06 ± 0.099, a protein stability index (san1∆) of 3.08 ± 0.11 and a protein stability index (ubr1∆) of 3.21 ± 0.11.
On to IEGMEQRIIKELSIRFP [ARP7], for which the protein stability index (doa10∆) was found to be 3.04 ± 0.096, the protein stability index (pdr5∆) came to 3.21 ± 0.12, the protein stability index (san1∆) was 2.84 ± 0.086 and the protein stability index (ubr1∆) was found to be 2.26 ± 0.099.
In the case of LQNKSFKSVLPIVLLNT [UBP6], the protein stability index (doa10∆) was determined as 1.91 ± 0.067, the protein stability index (pdr5∆) stood at 1.45 ± 0.1, the protein stability index (san1∆) is 1.87 ± 0.12 and the protein stability index (ubr1∆) amounted to 2.1 ± 0.072.
The sequence DLENKFNRLKKQAHEKL [YIL149C/MLP2] had a protein stability index (doa10∆) of 2.75 ± 0.11, a protein stability index (pdr5∆) of 2.71 ± 0.067, a protein stability index (san1∆) of 2.3 ± 0.17 and a protein stability index (ubr1∆) of 2.81 ± 0.063.
In the same order, the values of DVNALKFNNTQRESQIG [SNF12] are 2.31 ± 0.092, 2.75 ± 0.067, 2.68 ± 0.077 and 3.12 ± 0.063.
For IDYSNSQIRLYAKFKRN [RGR1] the same measures were 3.1 ± 0.093, 2.46 ± 0.1, 2.45 ± 0.091 and 2.8 ± 0.057.
In the same order, the values of LTVDNLSIAIVGKDTPF [PRE5] are 2.9 ± 0.052, 2.66 ± 0.05, 2.62 ± 0.05 and 3 ± 0.037.
Consider LGIKKEKRIQYAKDILQ [RPB2], for which the protein stability index by setting is: (doa10∆) 2.01 ± 0.059; (pdr5∆) 2.12 ± 0.061; (san1∆) 1.64 ± 0.094; (ubr1∆) 1.99 ± 0.041.
Turning to SDSIEKIVEIDRHIGCA [PUP2], the protein stability index came to 3.11 ± 0.24 (pdr5∆), 2.74 ± 0.13 (san1∆) and 2.82 ± 0.19 (ubr1∆).
In turn, ESAAVYNGRGARERKTA [SNF2] had a protein stability index (doa10∆) of 2.55 ± 0.067, a protein stability index (pdr5∆) of 2.3 ± 0.057, a protein stability index (san1∆) of 2.76 ± 0.06 and a protein stability index (ubr1∆) of 2.78 ± 0.06.
Turning to FRLIDTGALINNLEPRQ [RPN11], the protein stability index (doa10∆) was 2.81 ± 0.23 and the protein stability index (pdr5∆) was found to be 3.18 ± 0.24.
For VPQGKIVALTNAKDKER [SMC3], the protein stability index came out at 2.77 ± 0.1 (doa10∆), 2.84 ± 0.14 (pdr5∆), 2.83 ± 0.15 (san1∆) and 3.02 ± 0.092 (ubr1∆).
In turn, LFQVESAPKISSEIDRE [SIR4] returned a protein stability index (doa10∆) of 2.35 ± 0.05, a protein stability index (pdr5∆) of 2.61 ± 0.062, a protein stability index (san1∆) of 2.37 ± 0.053 and a protein stability index (ubr1∆) of 2.42 ± 0.045.
In the same order, the values of VENSVLIEKVDDTAANN [YIL149C/MLP2] are 2.83 ± 0.15, 2.82 ± 0.15, 2.68 ± 0.14 and 2.79 ± 0.088.
In the same order, the values of AQDFINAYASFLQRQGK [RPS19A] are 2.91 ± 0.061, 3.07 ± 0.064, 3.01 ± 0.06 and 3 ± 0.046.
In the same order, the values of GDNEYITLRTSGELLQG [MCD1] are 3.14 ± 0.13, 3.11 ± 0.16, 3.16 ± 0.097 and 3.36 ± 0.096.
KNTMFEKSDALVGVYRQ [SMC1]: the protein stability index was 3.27 ± 0.18 (doa10∆), 2.88 ± 0.11 (pdr5∆), 2.7 ± 0.081 (san1∆) and 2.94 ± 0.23 (ubr1∆).
With WMLSICVEWRLPEIAKE [YJR042W/NUP85], the protein stability index is, setting by setting: (doa10∆) 1.2 ± 0.08; (pdr5∆) 1.37 ± 0.05; (san1∆) 1.51 ± 0.11; (ubr1∆) 1.67 ± 0.061.
For NKTSNNNNVTAVPAATP [SWI1], the protein stability index is, setting by setting: (doa10∆) 2.84 ± 0.044; (pdr5∆) 3.06 ± 0.046; (san1∆) 2.81 ± 0.032; (ubr1∆) 3.07 ± 0.042.
In the same order, the values of LAKAVAATIGANFIFSP [RPT4] are 2.09 ± 0.048, 1.99 ± 0.042, 1.72 ± 0.088 and 2.18 ± 0.069.
Turning to SNADTNQNSDMKKKLEL [SRB8], the protein stability index (doa10∆) amounted to 3.14 ± 0.13, the protein stability index (pdr5∆) is 3.21 ± 0.15, the protein stability index (san1∆) came out at 2.75 ± 0.11 and the protein stability index (ubr1∆) was found to be 3.31 ± 0.17.
For RQGLIHQGSGGSVMSAS [SMC3] the same measures were 2.75 ± 0.091, 3.14 ± 0.062, 2.53 ± 0.086 and 2.69 ± 0.067.
Take GVLYQGNIQISEYNFLE [DIS3]: the protein stability index by setting is: (pdr5∆) 3.05 ± 0.16; (san1∆) 2.6 ± 0.18; (ubr1∆) 2.96 ± 0.28.
For SNGGGKVKPIRGFCQRL [RPO31], the protein stability index came to 2.94 ± 0.13 (doa10∆), 3.12 ± 0.11 (pdr5∆), 3.09 ± 0.097 (san1∆) and 3.25 ± 0.065 (ubr1∆).
